According to a protein production outcome set (Wang et al. 2014):

Test: label from the status in PepcDB records

For “MLKYSMHLNIILLEASLELVPKEIVNHPAVIKNAKRRNKKPEDTLLDISLHYHAMKYLENSHKRGRPDILHQALLVILTDPVIKGDIFIHTIQSKIIKVNPNMRPPKNYLRFIGLMEQLLKYGKIPINGDETLMEVTNLTLDNIVNRYDLILLSEKGEKINPEEICKLDEKWLLGIGAFPHGDFSDKILNLAKKIYSISGFPLETQQVLCRIFSACNSILGWPLEHHHHHH”, the protein production was “failed”.

In the case of “MAAAAAAAAAAGAAGGRGSGPGRRRHLVPGAGGEAGEGAPGGAGDYGNGLESEELEPEELLLEPEPEPEPEEEPPRPRAPPGAPGPGPGSGAPGSQEEEEEPGLVEGDPGDGAIEDPELEAIKARVREMEEEAEKLKELQNEVEKQMNMSPPPGNAGPVIMSIEEKMEADARSIYVGNVDYGATAEELEAHFHGCGSVNRVTILCDKFSGHPKGFAYIEFSDKESVRTSLALDESLFRGRQIKVIPKRTNRPGISTTDRGFPRARYRARTTNYNSSRSRFYSGFNSRPRGRVYRGRARATSWYSPY”, the protein production is reported as “failed”.

In the case of “MEVYSMNFALGVILAFSAAFTWALTSVLSKVSMRRVSPLTLNFLRLVIASGFYLPLIIYLNLIPSKGIMWWVIVVFSGIIGFMIGDWLFLEGMKLLGVSRANMLTTLHPIITMVLAHYLLGRPLNAYLFLGAGLIILAVLLLLSEKSESGGINARGVLLVVVAELLWTIAILITDWLVSNEPPVLIAALRISSGILGGLPFLPKMWREIRKLRLGDMGLVFVISLLGTIVGQYLFIKSISLVSSTVATPVTESTPIMASLLAVVFLREKITSKLVASMMLSFIGILIIGVLG”, the protein production is reported as “failed”.

In the case of “MTQVYKAKFGTPNRGWVIIVHGLGEHSGRYSKLVSMLVNEGYAVYTFDWPGHGKSPGKRGHTSVEEAMEIIDFIIEEINDKPFLFGHSLGGLTVIRYAETRPEKIRGVIASSPALAKSPKTPSFMVALAKILGVLLPSLTLSNGIDPNLLSRNPDAVKRYIEDPLVHDRISAKLGRSIFKNMDLAHREAHKIKVPVLLLVGTGDVITPPEGARKLYGEIKVEDKEIVEFEGAYHEIFEDPEWGEEFHKKIVEWIKKH”, the protein production is reported as “failed”.

For “MTNWLIAYQGEPGAYSEIAALRFGEPLPCESFDDVFSAVTEQKADYAVIPIENSLGGSIHQNYDLLLRRPVVILAETFVKVEHCLLGLPGASVETATKAMSHPQALVQCHNFFATHPQIRAEAAYDTAGSAKMVAESRDKSALAIASKRAGELYGLDILKENLADEEWNITRFFCIAHENNPDISHLKVRPDVARQKTSIVFALPNEQGSLFRALATFALRGIDLTKIESRPSRKKAFEYLFYADFIGHREDQNVHNALENLREFATMVKVLGSYGVVNP”, the protein production was “not failed”.

With “MKFDNKAPIYIQIMDKIKIDIINGTLKPGDKLPSVREMAVKFKVNPNTLQRVYQELERENITYTQRGTGSFVREDSDMIINLKKEMASEVIENFIENIKEFGFGNKDILKIVEDKLNEEEK” the protein production was “not failed”.

With “MQICDSYNQKNSLFNAMNRFIGAVNNMDQTVMVPSLLRDVPLDQEEEKEVTSFQDGDMYGSYVLLKSIRNDIEWGVLQAEERRKEKHGVTTTSLEVSRIEPNDKDLEKLFHYHLSGLHTVLAKLTRKANTLTNRYKQEIGIGGCGN” the protein production was “failed”.

In the case of “MKYMIPDEEFIRREGVPITKEEIRAVSIGKLNLNKDDVVVDVGCGSGGMTVEIAKRCKFVYAIDYLDGAIEVTKQNLAKFNIKNCQIIKGRAEDVLDKLEFNKAFIGGTKNIEKIIEILDKKKINHIVANTIVLENAAKIINEFESRGYNVDAVNVFISYAKKIPSGHMFLAKNPITIIKAVR”, the protein production is reported as “not failed”.

With “MNIVSQLSPVTLSPELIARFTAIVGDKHALTDPLELEAYITEERNLYRGHSPLVLRPGSTEEVVAICKLANEARVALVPQGGNTGLVGGQTPHNGEVVISLKRMDKIREIDTSSNTITVEAGAILQRVQEKAAEVDRLFPLSLGAQGSCTIGGNLSTNAGGTAALAYGLARDMALGVEVVLADGRVMNLLSKLKKDNTGYDLRDLFIGAEGTLGIITAATLKLFPKPRAVETAFVGLQSPDDALKLLGIAQGEAAGNLTSFELIAETPLDFSVRHANNRDPLEARYPWYVLIELSSPRDDARAALESILERGFEDGIVVDAAIANSVQQQQAFWKLREEISPAQKPEGGSIKHDISVPVAAVPQFIEQANAAVVALIPGARPVPFGHLGDGNIHYNVSQPVGADKAEFLARWHDVSQVVFEVVLRLGGSISAEHGIGVMKRDELAEVKDKTAIELMRSIKALLDPHGIMNPGKVV” the protein production was “not failed”.

With “MRTVDVFHPQAASNSAAVHASPQTTVAFSPDGTHYASAGYDGRVVLWDRSGTSPRWVGRHSRLVNGVRFSPSGRLLASGSADKTCRIWEVATGRQVQLLARQPDDLNALAWLDENRLVTVSQDGTGRIWDIRTGVLQEGVIFHADHCMSVDAAPTGVLASCGEDATIRLWDTDGSLLRDLPQAGHAEMCRWSPDGTLLAASCDDGFVHIVRTDGELVTKVGPYTAAVKSVAWSQDGSRIVIGAYDSTIALWDIADCRPLVRWYGAHLWPRAVDWSADGRTVVAGTFSARPAVIDVPEIPADALPDEVREITLEASVPTHGVNHVSAAGEVLAAGGDNGTIRVWSHRGATATEVPVGNGSLVNTVAVSAELPGLVAYGSFSGRVGVADAVTGRDVAAVQREHPVNRAAWSPDGRRLAVADYEGGLDLYAWTGRELVPGVHYAGHDGAIKDVSWVDADRLVTYSTDRRAHLITTEGTLIRSFGGHGELINGGSVTTVAGRALLATVSRDRTSRIYDLETGELLQVLVGHDESAKCAAWHPGGEPLLVTGSYDFTGRLWVLDPKTLAPLHQHVLEGHGSAVSAVCWLGDDAVTASWDSKVFTWTPDADPARPPAAAEPATDWRVREGSR” the protein production was “failed”.

In the case of “VYPLELTLEEIFHGCLKKVAHKRKVLLFSGEYVEEERQLTVDVKPGLPTGTRFVFEGEGNKTPKKEPGPVVFVLKPKPHPRFVRRGSDLVHKVTLPLHHALIGTTLDIRTLDDRDLKVPISDIMRPGSSLTVPGEGMPLPATPSARGNLVIEIDLLFPTHLTETQKMLLRSAF”, the protein production is reported as “not failed”.

With “MNTESVVEFLGNVPLLQKLPSSSLKKIAQVVVPKRYGKGDYVVREDQTWDGCYFILQGEAQVSGPDEEDNRSEFLLKQYDYFGVGLSGNVHSADIVAMSQLTCLVLPRDHCHLLETNSIWQSDTSLDKCSLVERILQLDPLELNIFRGITLPDAPIFGKVFGGQFVGQALAAASKTVDFLKVVHSLHSYFLLVGDIDIPIIYQVHRIRDGNNFATRRVDAVQKGNIIFILLASFQKEQQGFEHQESTMPSVPDPDTLLSLEELRESRITDPHLPRSYRNKVATRNFVPWPIEIRFCEPSNSTNQTKSPPRLNYWFRAKGRLSDDQALHRCVVAFASDLIFCGVGLNPHRRKGVKSAALSLDHAMWFHRPLRADEWLLYVIVSPTAHETRGFVTGQMFNRKGELVVSLTQEALLREARPPKPSGTSKL” the protein production was “failed”.

In the case of “MLDPHSRMPLYHQIESHLREVIRSGKWQAGEAIPPERLLIEQYGVSRITIRQALANLVAAGLLYRKHGRGTFVAGAKERPITESLANLTGHLEELQLRGLDPRVRVLALETRPMIAEVAEALQRSPGAEGWYLYRIVTVEQQPLMLSTVWLPCDLGVELNEELLKQHGMALLLTHNGIAPLRGSQRIGAMSAGPEEARLLGVRAGEAVLRVSRVIHGAADRPLVWFRTLYRSDRYEYEVELKRGRPHA”, the protein production is reported as “failed”.

With “MWKTASDKGLGHLLRDVWSLLNEEERELLDKEIQPFPCKKASTVFSEGDIPNNLFYLYEGKIKILREGVYGRFHISRIVKPGQFFGMRPYFAEETCSSTAIAVENSKVLAIPVEAIEALLKGNTSFCRYFLKALAKELGYAERRTVTLTQKHVRGRLAETLLILKENFGFENDGATLSIYLSREELATLSNMTVSNAIRTLSTFVSERMLALDGKRIKIIDCDRLQKTARSG” the protein production was “not failed”.

For “KSPVREPVDNLSPEERDARTVFCMQLAARIRPRDLEDFFSAVGKVRDVRIISDRNSRRSKGIAYVEFCEIQSVPLAIGLTGQRLLGVPIIVQASQAEKNRL”, the protein production was “not failed”.

In the case of “MLAILIFSFLLVILVAGNNSSAVSGTIIGSKMMNKSLALAITAVGYIAGYLLEGRFLQHAVNELLPFEPEYVLYAIIASFVIFTIAFFVKVPISLTMALVGSAIGLSLKLGYSSDARFLTEVIIAWIAAPLISVGSSYVFNDRLSKMRHGDIWRYASAIKVMPIVTAIFTAFTLGANTIGFLGDISGTAVFNEILISIGSVIGTFFFSSGIMKSVSQNMYMMKYTNAFSSQLISALVVEVSTLFSIPMSNTQTLTSAVLGAGLSYRAKAIYLKPFLYIVIMWILSPLIGMAFTYALA”, the protein production is reported as “failed”.

With “QGHWFAIHSGTLGIMVNVDALGGLPVPQSWADLLKPEYKGMVGYLDPSSAFVGYVSAVAINQAMGGSLDNFGPAIDYFQKLAKNSPIVPKQTAYARALSGELPILVDYDFNAYRARYKDKANVAFVIPKEGTIGVPYVMSMVAKAPHRANAEKVLDFVLSDAGQALWAKAYLRPVR” the protein production was “failed”.

For “MNIPVEVEVAEVLTDSAATGIFEPGDKLLSIDGTAISTPGDAQTIVRSKAPGDEITISYERNDAESQATITLREHPLEHHHHHH”, the protein production was “failed”.

With “MSTTTATLRDAIPDTRSLVTWAAVLNAEFILILGYVVNTAQPATDPFLLVFPFIWLNIAGLVALRVRPELPSRRRTIGSVVIALGYLLVLGYVGGVYGTGGQGTGLRLVTQAPPGFSPTVVFSGATLSVVLIPWKVAGYLALSYLVFVTAVDASGGAVGGIVGLFSCVSCVLPILASILGGFVGVGATLSQAALSQSYGLSTVVFVTSVGLLYGVHRFDVTLVGRLQALVDRP” the protein production was “failed”.

With “MMKILGLIGGMSWESTIPYYRMINQHVKAQLGGLHSAKIILYSVDFHEIEQLQAKGDWQTAAQLLSNAAISLKHAGAEVIVVCTNTMHKVADDIEAACGLPLLHIADATAVQIKQQGIDKIGLLGTRYTMEQGFYRGRLTEKHGIEVITPDDTDREAVNRIIYEELCLGIISETSRDAYRRVIKKLEAQGVQGIIFGCTEITLLVNAQDASVPVFDTTAIHASAAADYALQ” the protein production was “not failed”.

For “MHILSMIKSQLKLLFNNRLAVFAIILAPILLTFLVSYSSSSNSKTNVYFADQDNTEASRQLVNMLKNNHDLNLISSSESEIKNKVDDDNITVGVLINKGFGYKLQNNKALDITLIEDYDSVDGEKLSDIILSTENTLQKVNLDSKSISRVLSSNESSISNKIIKKINNGSGVKLLYKNLKSSQNVEDKNAQNLIGFLLMFLWFIVIQGFRTLIEEKENNTFNRIKGTPTNYSKYLLSKIIANYIFGMIIIAIILIVGKYGLKSKIINNVGPEIAILSIYLFSIVGLVMIFVPFVKKHQTFTIIGAAIMVLTGLLGGSFFSMDELQLPKAIEIISKFMPETWGIKSLKEVVFNNLSLGSQSQTILVLGIAGIVGLLISTIIVKIIDRTEKNF”, the protein production was “failed”.

For “MCCPPMTSSSSLSHHASQSGQVRLCPGCELPIDAITVDQAHSAHCPRCGTLLYRGGSPSLSGDLALAVTCLLLFIPSHFFSYIDIRLFGVMIPATLPQGVFALWDEGYIALALLVLFCSSIAPLVLCLSVVSAHLALRFRYFQTLRYSLLFIHHLKVWVMIDVFLVSVAVSCFKLKDYSDIFIGPGLLGLVLLQLFTVLLLSRISTRRYWETWQAETEYDLPVKQVHCHNCHLSQPENGHCVRCQHKLYHRKPNSIERTWAYVLAATVAIFPANLIPISILITNGQRLEDTIFSGVASLVKNGMWGIALIIFVASIVVPVIKIIGLAYLLMAIKLKRHVHQRQRMMIYRGIKWIGKWSVMDLFVISIMLTLVDRGQILDFTPGYGAVAFGMVVVLTMLAAESLDPRLLWDEPDSTRTQQ”, the protein production was “failed”.

In the case of “MQMLRNLSTRTRSRRGGYERVSDDSTFSLLGAKLRRSTSVPYYAPSIRLGGDFPVILEKLPRQKPTKTVVTSKLSHPIFSLFDGYRRHNKKKATAKPEFSRYHEYLKESGMWDLRSNSPVIYFK”, the protein production is reported as “failed”.

With “YMVPGLWGAPLKAVSAFAPPMKTQDFNLYTNEVHAKFDDYDLGMEYARQHNKPVMLDFTGYGCVNCRKMELAVWTDPKVSSIINNDYVLITLYVDNKTPLTEPVKIMENGTERTLRTVGDKWSYLQRVKFGANAQPFYVLIDNEGNPLNKSYAYDEDISKYINFLQTGLENYRKEK” the protein production was “failed”.
